These results are taken from publication doi:10.1101/2025.09.11.675134, “Biodistribution-Driven Discovery Identifies a Glycosidase-Cleavable Linker to Reprogram Radiotheranostics” (bioRxiv, 2025).

Entries after “also recorded” stand apart in the source; their conditions may differ.

Series [1] can be described thus: Urine metabolite analysis by radio-HPLC. In kind it is in vivo. As to conditions: normal non-tumor-bearing athymic nu/nu mice, i.v. 13–15 MBq in 200 μL PBS (4 μg), urine 1 h post-injection, n = 3. The protocol: To elucidate the role of linker cleavage in reducing renal retention, we performed metabolite analysis of ^86Y-labeled DOTA-TATE derivatives in normal, non-tumor-bearing athymic nu/nu mice. […] These samples were analyzed by radio-HPLC alongside synthetic standards corresponding to the expected cleavage products: ^86Y-DOTA-G-M-OH and ^86Y-DOTA-NHMe (Fig. 4A).

Series [2] has as its system AR42J xenografts. Put plainly: Ex vivo biodistribution of 111In-labeled variants in AR42J xenograft mice. The conditions noted are these: AR42J xenografts, 1 h post-injection. On the set-up: species or system athymic nude mice. The protocol:
For studies involving three variants (DOTA -TATE, DOTA-MVK(ε)-TATE, and DOTA-β-Gal-TATE), AR42J cells (5 × 10^6 cells per mouse) were subcutaneously inoculated into the right shoulder of the mice. Tumors were allowed to grow for 3 weeks, reaching a volume of 100 –200 mm³ before being used in subsequent experiments. For biodistribution or PET imaging studies, mice bearing subcutaneous AR42J tumors were administered 1.4 – 1.8 MBq (1 μg) of 111In-labeled DOTA-TATE variants or 2.7 – 4.9 MBq (1 μg) of 86Y-labeled DOTA-TATE variants via tail vein injection. Biodistribution studies with 111In-labeled DOTA -TATE variants were performed 1 hour post -injection (n = 3 per cohort), while studies with 86Y-labeled DOTA-TATE variants were conducted at 1, 4, and 24 hours post -injection (n = 3 per cohort). Mice were euthanized by CO2 asphyxiation, and 10 tissues, including tumors, were collected. All samples were weighed and counted on a gamma counter (2480 Wizard 3, Perkin Elmer Inc., Waltham, MA, USA). Results are presented as percentage of injected activity per gram (%IA/g) and mean values ± standard deviations. […]

For series [3], the system named is AR42J xenografts. Put plainly: Targeted alpha particle therapy, one-cycle regimen. It counts as in vivo, athymic nu/nu mice. The method, then: Building on the favorable dosimetry profiles observed for the cleavable linker-modified constructs, we next evaluated their therapeutic efficacy in vivo following one cycle of ^225Ac-labeled variants (Fig. 5C; Fig. S19A). […] Tumor growth, overall survival, and body weight were monitored over 95 days.
(§1) Mice received either a one-cycle regimen (n=8 per cohort) or a two-cycle regimen (n=6 per cohort) at an 8-day interval. Tumor volume and body weight were measured twice weekly after treatment using a digital caliper. Tumor volume was calculated using the formula V (mm^3) = (l × w^2)/2, where l (length) was the larger of the two perpendicular tumor axes, and w (width) was the smaller axis. Survival was monitored, with the endpoint defined as a tumor volume exceeding 2000 mm^3, a weight loss greater than 20% from baseline, or signs of distress in the mice.

Series [4] can be described thus: Blood chemistry and complete blood count during therapy. The conditions noted are these: one cycle of 225Ac treatment (148 kBq), blood at 0, 10 and 31 days, VetScan HM5. In kind it is in vivo, athymic nu/nu mice. The text has this: Blood samples were collected at multiple timepoints during therapy studies and analyzed to assess toxicity (Fig. S25). Biochemical parameters of liver (e.g. alanine aminotransferase, bilirubin) and renal (blood urea nitrogen, and creatinine) toxicity remained mostly within normal limits across all groups. […] These findings further support the favorable tolerability profiles of the cleavable linker constructs.
Additionally, a basic metabolic panel (BMP) and complete blood count (CBC) analysis were performed to monitor hematological parameters and potential treatment-related toxicity. For the one-cycle therapy cohort, blood was collected at 0-, 10-, and 31-days post-treatment, whereas for the two-cycle therapy cohort, blood was collected at 10 days, 3 months, and 6 months post-treatment. Samples were obtained retro-orbitally into potassium EDTA-coated tubes and analyzed using the Vetscan VS2 (Abaxis, Union City, CA, USA) and VetScan HM5 hematology analyzer (Abaxis). Although these instruments provide species-specific reference intervals, manufacturer-supplied ranges may not fully reflect our study cohort. […] The following parameters were assessed and compared: alanine transaminase (ALT, U/L), total bilirubin (TBIL, μmol/L), creatinine (CRE, μmol/L), blood urea nitrogen (BUN, mmol/L), total white blood cell count (WBC, 10^9/L), hemoglobin (HGB, g/dL), and platelets (PLT, 10^9/L).

Series [5] deals with AR42J xenografts. Put plainly: Targeted alpha particle therapy, two-cycle regimen. In kind it is in vivo, athymic nu/nu mice. As to conditions: 2 × 148 kBq. The protocol:
To further assess therapeutic efficacy, AR42J xenograft-bearing mice received two cycles of ^225Ac-labeled constructs (2 × 148 kBq, administered 8 days apart) (Fig. 5D). […] Complete tumor regression occurred in two of six animals in each cleavable linker group.
as §1

Regarding `C[C@@H](O)[C@H](NC(=O)[C@@H]1CSSC[C@H](NC(=O)[C@@H](Cc2ccccc2)NC(=O)CCCC(=O)Nc2cc(COC(=O)N(C)CCNC(=O)CN3CCN(CC(=O)O)CCN(CC(=O)O)CCN(CC(=O)O)CC3)ccc2O[C@@H]2O[C@H](CO)[C@H](O)[C@H](O)[C@H]2O)C(=O)N[C@@H](Cc2ccc(O)cc2)C(=O)N[C@H](Cc2c[nH]c3ccccc23)C(=O)N[C@@H](CCCCN)C(=O)N[C@@H]([C@@H](C)O)C(=O)N1)C(=O)O` [^86Y-DOTA-β-Gal-TATE, metal not drawn], the “Share of total urinary radioactivity corresponding to the cleaved metabolite (86Y-DOTA-G-M-OH or 86Y-DOTA-NHMe)” value in series [1] is reported as 47.4%.

For `C[C@@H](O)[C@H](NC(=O)[C@@H]1CSSC[C@H](NC(=O)[C@@H](Cc2ccccc2)NC(=O)CCCC(=O)Nc2cc(COC(=O)N(C)CCNC(=O)CN3CCN(CC(=O)O)CCN(CC(=O)O)CCN(CC(=O)O)CC3)ccc2O[C@@H]2O[C@H](CO)[C@H](O)[C@H](O)[C@H]2O)C(=O)N[C@@H](Cc2ccc(O)cc2)C(=O)N[C@H](Cc2c[nH]c3ccccc23)C(=O)N[C@@H](CCCCN)C(=O)N[C@@H]([C@@H](C)O)C(=O)N1)C(=O)O` [^111In-DOTA-β-Gal-TATE, metal not drawn], in series [2], the “Improvement of T/K ratio over DOTA-TATE” value was found to be 2.7 fold, the “Increase in tumor uptake compared to DOTA-TATE” value is ~ 90% and the “Reduction in kidney retention compared to DOTA-TATE” value is reported as ~ 29%.

For the compound `C[C@@H](O)[C@H](NC(=O)[C@@H]1CSSC[C@H](NC(=O)[C@@H](Cc2ccccc2)NC(=O)CCCC(=O)Nc2cc(COC(=O)N(C)CCNC(=O)CN3CCN(CC(=O)O)CCN(CC(=O)O)CCN(CC(=O)O)CC3)ccc2O[C@@H]2O[C@H](CO)[C@H](O)[C@H](O)[C@H]2O)C(=O)N[C@@H](Cc2ccc(O)cc2)C(=O)N[C@H](Cc2c[nH]c3ccccc23)C(=O)N[C@@H](CCCCN)C(=O)N[C@@H]([C@@H](C)O)C(=O)N1)C(=O)O` [^225Ac-DOTA-β-Gal-TATE, metal not drawn], the Median survival time in series [3] (148 kBq (1 μg) per mouse, AR42J xenograft-bearing mice, n = 8, Kaplan–Meier, vehicle 16 days) is given as 86 days; in series [5] (8 days apart, AR42J xenograft-bearing mice, n = 6, Kaplan–Meier, vehicle 26.5 days), 191.5 days. Besides, the Tumor growth result in series [3] (148 kBq per mouse, monitored over 95 days, n = 8) is recorded as “most sustained inhibition of tumor growth, with minimal progression observed up to day 35 post-treatment”. Also, the Body weight result in series [3] (148 kBq per mouse, n = 8) was “gradually regained weight by day 14, maintaining stable body weights for the remainder of the study”. For the same compound, in series [4], the “White blood cell counts” value is “transient decrease following one cycle of ^225Ac treatment that recovered at later time points”. Besides, in series [5] (8-day interval, n = 6), the Tumor control entry is “significantly smaller; also recorded: prolonged tumor control with sustained growth inhibition”. In series [5] (n = 6), the “Mice with tumor volumes below 100 mm^3 by the final monitoring point” value is listed as “all six”.
